Several values for one entry are separate records, joined by “and”; a condition that tells them apart may be missing. Identical values can stand only once.
Experiments:
[1] = molecular target: P. acnes total surface protein extract; experiment: plate assay, extract 0.8 to 50 µg/ml immobilized, biotinylated fibrinogen 0.1 µg/ml
[2] = molecular target: human fibrinogen (purified, commercial) (human) (UniProt P02671); experiment: fibrinogen binding activity after ammonium sulfate precipitation, biotinylated fibrinogen
UniProt P02671, sequence (P02671 20-629 limits assumed, chain 1 of 3): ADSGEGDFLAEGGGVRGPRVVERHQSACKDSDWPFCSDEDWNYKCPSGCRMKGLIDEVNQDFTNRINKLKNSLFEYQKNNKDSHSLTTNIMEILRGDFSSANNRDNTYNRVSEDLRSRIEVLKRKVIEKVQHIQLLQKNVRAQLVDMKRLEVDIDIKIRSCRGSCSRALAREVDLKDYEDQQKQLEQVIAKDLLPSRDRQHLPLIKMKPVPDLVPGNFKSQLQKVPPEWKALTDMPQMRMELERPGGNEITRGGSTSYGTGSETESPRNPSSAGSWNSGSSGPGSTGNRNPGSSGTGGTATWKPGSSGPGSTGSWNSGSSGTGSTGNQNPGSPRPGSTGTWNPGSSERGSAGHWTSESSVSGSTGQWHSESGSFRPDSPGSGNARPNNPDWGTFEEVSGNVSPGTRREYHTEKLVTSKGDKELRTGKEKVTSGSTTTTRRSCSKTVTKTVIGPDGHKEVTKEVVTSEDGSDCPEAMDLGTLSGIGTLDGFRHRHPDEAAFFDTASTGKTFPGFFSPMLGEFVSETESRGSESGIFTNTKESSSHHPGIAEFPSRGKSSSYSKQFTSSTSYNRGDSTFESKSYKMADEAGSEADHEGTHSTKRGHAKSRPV
UniProt P02671, sequence (chain, as listed by the source limits assumed, chain 2 of 3): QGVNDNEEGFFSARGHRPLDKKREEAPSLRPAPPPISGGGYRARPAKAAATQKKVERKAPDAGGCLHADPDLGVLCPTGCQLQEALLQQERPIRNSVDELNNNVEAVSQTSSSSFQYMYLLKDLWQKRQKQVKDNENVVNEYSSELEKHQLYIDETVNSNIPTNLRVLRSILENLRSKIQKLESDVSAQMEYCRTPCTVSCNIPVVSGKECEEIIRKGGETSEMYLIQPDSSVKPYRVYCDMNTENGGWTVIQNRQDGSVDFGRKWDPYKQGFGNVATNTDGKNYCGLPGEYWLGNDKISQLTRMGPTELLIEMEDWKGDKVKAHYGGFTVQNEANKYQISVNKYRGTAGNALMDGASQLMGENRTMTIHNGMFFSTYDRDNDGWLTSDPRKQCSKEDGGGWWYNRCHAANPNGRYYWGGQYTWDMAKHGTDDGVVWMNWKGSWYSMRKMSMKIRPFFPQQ
UniProt P02671, sequence (P02679 other isoform, or with tags, fused parts or gaps limits assumed, chain 3 of 3, further chain): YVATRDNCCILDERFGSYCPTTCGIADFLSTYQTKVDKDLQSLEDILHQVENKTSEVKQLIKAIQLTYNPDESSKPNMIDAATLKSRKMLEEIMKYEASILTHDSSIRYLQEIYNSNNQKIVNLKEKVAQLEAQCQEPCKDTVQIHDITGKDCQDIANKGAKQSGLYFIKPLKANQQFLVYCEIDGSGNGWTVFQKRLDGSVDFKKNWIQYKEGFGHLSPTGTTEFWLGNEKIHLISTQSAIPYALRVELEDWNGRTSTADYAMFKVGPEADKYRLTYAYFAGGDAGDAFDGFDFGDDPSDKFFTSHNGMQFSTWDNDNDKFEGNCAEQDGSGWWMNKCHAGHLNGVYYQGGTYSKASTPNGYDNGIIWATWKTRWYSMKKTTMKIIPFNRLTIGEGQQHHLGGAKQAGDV

[3] = molecular target: human fibrinogen (purified, commercial) (human) (UniProt P02671); experiment: fibrinogen binding activity of purification step, biotinylated fibrinogen
[4] = molecular target: human fibrinogen (purified, commercial) (human) (UniProt P02671); experiment: fibrinogen binding activity of the anion exchange pool (partly purified Pfg), biotinylated fibrinogen
[5] = molecular target: human fibrinogen (purified, commercial) (human) (UniProt P02671); experiment: fibrinogen binding activity of the gel filtration pool (pure Pfg), biotinylated fibrinogen

**Q.** How did the concentration of immobilized extract at which binding reaches a plateau [1] turn out when “human fibrinogen (purified, commercial) (from UniProt P02671 20-629; P02679 27-437) (ligand)” was run?
**A.** 6.25 µg/mL

**Q.** For P. acnes total surface protein extract, which fold increase in specific activity against the unconcentrated lithium extract [2] is on record?
**A.** 1.45 fold

**Q.** What about the Specific Activity (fibrinogen binding activity per unit of protein) [3] of the same substance?
**A.** 423 U/mg and 290 U/mg

**Q.** And the Total units (fibrinogen binding activity) [3]?
**A.** 390000 U and 160000 U

**Q.** With “Pfg, 58-kDa P. acnes surface protein (fibrinogen binding protein; putative adhesion or S-layer protein YP_056792, locus tag PPA2127)” as the substance, how does the Specific Activity (fibrinogen binding activity per unit of protein) [4] read?
**A.** 1030 U/mg

**Q.** And the Total units (fibrinogen binding activity) [4]?
**A.** 3000 U

**Q.** What about the Specific Activity (fibrinogen binding activity per unit of protein) [5] of the same substance?
**A.** 1840 U/mg

**Q.** And the Total units (fibrinogen binding activity) [5]?
**A.** 368 U

— US20180105574A1
